The chains are these.
B1: Protein piccolo, residues 1058 to 1114; numbered along this chain, Q9Y6V0 (parent)
chain: TCPLCKTELNIGSKDPPNFNTCTECKNQVCNLCGFNPTPHLTEIQEWLCLNCQTQRA

± gives the uncertainty stated by the source.

Variants of B1 are the subject of the data set. In words: abundance fitness (aPCA) (normalised: wild type 0, dead -1); higher = more abundant; growth selection in yeast, the domain comes from the species named. As to conditions: Homo sapiens.
For TCPLCKTELNIGSKDPPNFNTCTECKNQVCNLCGFNPTPHLTEIQEWLCLNTQTQRA, the abundance fitness was -0.842 ± 0.21.
As for TCPLCKTELNIGSKDPPNFNTCTECKNQVCNLCGFNPTPHLTEIQEWLCLNEQTQRA, the abundance fitness was -0.448 ± 0.16.
As for TCPLCKTELNIGSKDPPNFNTCTECKNQVCNLCGFNPTPHLTEIMEWLCLNCQTQRA, the abundance fitness was -0.015 ± 0.19.
In the case of TCPLCKTELNIGSKDPPNFNTCTECKNQVCNLCGFNPTPHITEIQEWLCLNCQTQRA it was 0.188 ± 0.21; in that of TCPLCKTELNIGSKDPPNFNTCTECKNQVCNLCGFNPTPHFTEIQEWLCLNCQTQRA, 0.149 ± 0.12.
On to ICPLCKTELNIGSKDPPNFNTCTECKNQVCNLCGFNPTPHLTEIQEWLCLNCQTQRA, for which the abundance fitness was -0.024 ± 0.22.
For the variant TCPLCKTELNIGSKDPPNFNTCTECKNQVCNLVGFNPTPHLTEIQEWLCLNCQTQRA, the abundance fitness was -0.743 ± 0.12.
Consider TCPLCKTELNIGSTDPPNFNTCTECKNQVCNLCGFNPTPHLTEIQEWLCLNCQTQRA, for which the abundance fitness was found to be 0.013 ± 0.12.
Turning to TCPLCKTELRIGSKDPPNFNTCTECKNQVCNLCGFNPTPHLTEIQEWLCLNCQTQRA, the abundance fitness was -0.274 ± 0.08.
As to TCPLCKTWLNIGSKDPPNFNTCTECKNQVCNLCGFNPTPHLTEIQEWLCLNCQTQRA, the abundance fitness was -0.517 ± 0.084.
For TCPLCKTEHNIGSKDPPNFNTCTECKNQVCNLCGFNPTPHLTEIQEWLCLNCQTQRA the value was -0.231 ± 0.15.
With TCPLCKTEYNIGSKDPPNFNTCTECKNQVCNLCGFNPTPHLTEIQEWLCLNCQTQRA, the abundance fitness is -0.181 ± 0.14.
For TCPLCKTEDNIGSKDPPNFNTCTECKNQVCNLCGFNPTPHLTEIQEWLCLNCQTQRA, the abundance fitness was -0.138 ± 0.13.
In the case of TCPLCKTELNIGSKDPPNFYTCTECKNQVCNLCGFNPTPHLTEIQEWLCLNCQTQRA, the abundance fitness is -0.337 ± 0.15.
As for TCPLCKTELNIGSKDPPNFDTCTECKNQVCNLCGFNPTPHLTEIQEWLCLNCQTQRA, the abundance fitness came to 0.186 ± 0.19.
For the variant TCPLCKTELNIGSKDPPNFNTCTECKNQVCNLCGFNPTPHLTEIQEWLRLNCQTQRA, the abundance fitness was -0.782 ± 0.13.
Consider TCPLCKTELNIGSKDPPNFNTETECKNQVCNLCGFNPTPHLTEIQEWLCLNCQTQRA, for which the abundance fitness is -0.54 ± 0.16.
As to TCPLCKTELNIGSKDPPNFNTCTECKNQRCNLCGFNPTPHLTEIQEWLCLNCQTQRA, the abundance fitness was -0.148 ± 0.076.
TCPLCKTELNIGSKDPPNFNTCTECKNQSCNLCGFNPTPHLTEIQEWLCLNCQTQRA: the abundance fitness is -0.265 ± 0.068.
Turning to TCPLCKTELNIGSKDPPNFNTCTECKNQVCKLCGFNPTPHLTEIQEWLCLNCQTQRA, the abundance fitness amounted to 0.12 ± 0.16.
Regarding TCPLCKTELNIGSKDPPNFNTCTECKNQVCSLCGFNPTPHLTEIQEWLCLNCQTQRA, the abundance fitness was 0.056 ± 0.098.
As for TCPLCKTELNIGSKDPPNFNTCTECKNQVCNLCGFNPTPHLTMIQEWLCLNCQTQRA, the abundance fitness was -0.191 ± 0.18.
TCPLCKTELNIGSKDPPNFNTCTECKNQVCNLCGFNPTPHLTAIQEWLCLNCQTQRA: the abundance fitness is -0.048 ± 0.16.
Turning to TCPLCKTELNIGSKDPPNFNTCTECKNQVCNLCGFNPTPHLTEIQEWLCNNCQTQRA, the abundance fitness was 0.019 ± 0.14.
Consider TCPLCKTELNIGSKDPPNFNCCTECKNQVCNLCGFNPTPHLTEIQEWLCLNCQTQRA, for which the abundance fitness worked out at 0.032 ± 0.13.
For TCPLCKTELNIGSKDPPNFNFCTECKNQVCNLCGFNPTPHLTEIQEWLCLNCQTQRA the value was -0.109 ± 0.16.
Turning to TCPLCKTELNIGSKDPPNFNTCTECKNQVCNLCGFNPTPHLTEIQEWLCLMCQTQRA, the abundance fitness is -0.557 ± 0.2.
Consider TKPLCKTELNIGSKDPPNFNTCTECKNQVCNLCGFNPTPHLTEIQEWLCLNCQTQRA, for which the abundance fitness is -0.831 ± 0.26.
Turning to TIPLCKTELNIGSKDPPNFNTCTECKNQVCNLCGFNPTPHLTEIQEWLCLNCQTQRA, the abundance fitness was -1.23 ± 0.28.
On to TCPLCKTELNIGSKDPPKFNTCTECKNQVCNLCGFNPTPHLTEIQEWLCLNCQTQRA, for which the abundance fitness is -0.032 ± 0.17.
TCPLCKTELNIGSKDPPNFNTCTECKNQVCNLCSFNPTPHLTEIQEWLCLNCQTQRA: the abundance fitness is -0.106 ± 0.088.
As for TCPLCKTELNIGSKDPPNFNTCTECKNQVCNLCGFNPTPQLTEIQEWLCLNCQTQRA, the abundance fitness is -0.065 ± 0.18.
Regarding TCPLCKTELNIGSKDPPNFNTCTECKNQVCNLCGFNPTPCLTEIQEWLCLNCQTQRA, the abundance fitness was found to be 0.046 ± 0.13.
On to TCPLCKTELNIGSKDPPNFNTCTECKNQVHNLCGFNPTPHLTEIQEWLCLNCQTQRA, for which the abundance fitness is -0.17 ± 0.24.
Consider TCPLQKTELNIGSKDPPNFNTCTECKNQVCNLCGFNPTPHLTEIQEWLCLNCQTQRA, for which the abundance fitness was -0.689 ± 0.15.
Regarding TCPLCKTELNIGSKDPPNFNTCTECPNQVCNLCGFNPTPHLTEIQEWLCLNCQTQRA, the abundance fitness was -0.148 ± 0.14.
Take TCPLCKTELNIGSKDFPNFNTCTECKNQVCNLCGFNPTPHLTEIQEWLCLNCQTQRA: the abundance fitness was determined as 0.024 ± 0.13.
With TCPLCKTELNIGSKDHPNFNTCTECKNQVCNLCGFNPTPHLTEIQEWLCLNCQTQRA, the abundance fitness is 0.009 ± 0.21.
As for TCPLCKTELNIGSKDRPNFNTCTECKNQVCNLCGFNPTPHLTEIQEWLCLNCQTQRA, the abundance fitness is -0.179 ± 0.1.
As to TCPLCKTELNIGSKDIPNFNTCTECKNQVCNLCGFNPTPHLTEIQEWLCLNCQTQRA, the abundance fitness was -0.173 ± 0.16.
On to TCPLCKTELNIGSKDPPNFNTCTECKNQVCNLCGFWPTPHLTEIQEWLCLNCQTQRA, for which the abundance fitness was -0.08 ± 0.11.
Consider TCPLCKTELNIGSKDPPNFNTCTECKNQVCNVCGFNPTPHLTEIQEWLCLNCQTQRA, for which the abundance fitness was 0.104 ± 0.092.
As to TCPLCKTELNIGSKDPPNRNTCTECKNQVCNLCGFNPTPHLTEIQEWLCLNCQTQRA, the abundance fitness was -0.263 ± 0.087.
On to TCPLCKTELNIGSKDPPNTNTCTECKNQVCNLCGFNPTPHLTEIQEWLCLNCQTQRA, for which the abundance fitness was -0.044 ± 0.13.
TCPLCKTELNIGSKDPPNFNTCTECKTQVCNLCGFNPTPHLTEIQEWLCLNCQTQRA: the abundance fitness was -0.082 ± 0.18.
As to TCPLCKTELNIGSKDPPNFNTCTECKFQVCNLCGFNPTPHLTEIQEWLCLNCQTQRA, the abundance fitness is -0.424 ± 0.19.
In the case of TCPLCKTELNIGRKDPPNFNTCTECKNQVCNLCGFNPTPHLTEIQEWLCLNCQTQRA it was -0.264 ± 0.079.

These data come from the Human Domainome abundance scans (Beltran et al. 2025).
